Measurements reported in publication PMC1310897.

Experiments:
Assay in all cases: fluorescence polarization
RecQ F158L = RecQ F158L (Escherichia coli, UniProt P15043 1-609, F158L)
RecQ W154L = RecQ W154L (Escherichia coli, UniProt P15043 1-609, W154L)
RecQ R159L = RecQ R159L (Escherichia coli, UniProt P15043 1-609, R159L)
RecQ WT = RecQ WT (Escherichia coli, UniProt P15043 1-609)

Measured: binding result

B1: oligo 1 ssDNA (30 nt) (ssDNA)
DNA: GCGTGGGTAATTGTGCTTCAATGGACTGAC
binds: RecQ F158L | RecQ W154L | RecQ R159L | RecQ WT
